This note sets out measurements from paper PMC4293902, “Biochemical and structural characterization of the apicoplast dihydrolipoamide dehydrogenase of Plasmodium falciparum” (Bioscience Reports, 2015).

Data set [1] addresses Plasmodium falciparum apicoplast dihydrolipoamide dehydrogenase (PfaE3), recombinant mature-length, N-terminal His-tag (Plasmodium falciparum 3D7). Put plainly: SAXS; EMBL beamline X33, DESY; 10°C; PfaE3 at 9, 8, 6, 5 and 4 μM; Guinier, p(r) and ab initio DAM with P2 symmetry.
The target is the same in data set [2]. Kind of data set: SEC; HiLoad 16/60 Superdex 200, calibrated; 50 mM potassium phosphate, 150 mM NaCl, 2 mM EDTA, pH 7.4; Ni-NTA eluate applied.
Data set [3] shares this target. Put plainly: AUC; sedimentation equilibrium, 17000 rpm, 4°C, 4.7 to 22.7 μM PfaE3; 50 mM potassium phosphate, 250 mM NaCl, 2 mM EDTA, pH 7.4; interference optics, single species model in SEDPHAT.
Substrate in data set [4]: NC(=O)C1=CN([C@@H]2O[C@H](COP(=O)(O)OP(=O)(O)OC[C@H]3O[C@@H](n4cnc5c(N)ncnc54)[C@H](O)[C@@H]3O)[C@@H](O)[C@H]2O)C=CC1
Put plainly: purified protein. It is filed as biochemical, Plasmodium falciparum. Particulars: reverse reaction, 2 mM lipoamide, 50 mM potassium phosphate, 1 mM EDTA, pH 7, 25°C.

Substrate in data set [5]: NC(=O)CCCC[C@@H]1CCSS1
Kind of data set: purified protein. It counts as biochemical, Plasmodium falciparum. The note with it: reverse reaction, 200 μM NADH, 50 mM potassium phosphate, 1 mM EDTA, pH 7, 25°C.

Substrate in data set [6]: NC(=O)CCCC[C@@H](S)CCS
Put plainly: purified protein. It is filed as biochemical, Plasmodium falciparum. The note with it: forward reaction, 2 mM NAD+, 50 mM potassium phosphate, 1 mM EDTA, pH 8, 25°C.

Substrate in data set [7]: NC(=O)c1ccc[n+]([C@@H]2O[C@H](COP(=O)(O)OP(=O)(O)OC[C@H]3O[C@@H](n4cnc5c(N)ncnc54)[C@H](O)[C@@H]3O)[C@@H](O)[C@H]2O)c1
Put plainly: purified protein. It is filed as biochemical, Plasmodium falciparum. Particulars: forward reaction, 2 mM DHLA, 50 mM potassium phosphate, 1 mM EDTA, pH 8, 25°C.

Regarding “Plasmodium falciparum apicoplast dihydrolipoamide dehydrogenase (PfaE3), recombinant mature-length, N-terminal His-tag (enzyme)”, the stoichiometry N in data set [1], in data set [2] and in data set [3] was 2 in each case.

B1: PfaE3 (P. falciparum apicoplast E3, dihydrolipoamide dehydrogenase) (Plasmodium falciparum 3D7) (protein)
chain: LKGSTQNIMNINEKEYDLAIIGCGVGGHAAAINAMERNLKVIIFAGDENCIGGTCVNVGCIPSKALLYATNKYRELKNLDKLYYYGIHSNIFQNNKNTEIENNQLVSNSFQINITKLKEYTQSVIDKLRNGISHGFKTLKFNKNSEHVQVIYEHGQLLDKNTIKSKKSGNTYKVKNIIIATGSVPNIPNNVEIDDKSVFTSDMAVKLVGLKNYMSIIGMGIIGLEFADIYTALGSEITFLEYSSELLPIIDNDVAKYFERVFLKNKPVNYHLNTEVKYIKASKNNNPVIIGYSHRTGNDDNEKKNMTDVKELYVDSCLVATGRNPNTQNLGLEKLKIQMNRGYVSVNDNLQVKMENNEIYDNIFCIGDANGKQMLAHTASYQALKVIDFIEKKEKKNVNINVENNLSKPILYKNIPSVCYTNPELAFIGLTEKEAKVLYPDNVGVEISYYKSNSKILCENNISLNNNKKNNSYNKGQYNINDNTNGMVKIIYKEDTKEILGMFIVGNYASVLIHEAVLAINLKLSAFDLAYMVHSHPTVSEVLDTAFKSISKIRTH
notes: mature-length, apicoplast-targeting peptide removed; given as 110-667 in Results but 118-667 in Methods (forward primer at nt 331, i.e. codon 111); N-terminal 6-His tag kept (pQE30), expressed in E. coli NovaBlue (DE3); about 64 kDa, homodimer 128 kDa; 566 residues with tag; some C-terminally truncated form present
As for B1, the Km in the data set “purified protein [4]” turned out to be 15 ± 2 µM; in the data set “purified protein [5]”, 841 ± 97 µM; in the data set “purified protein [6]”, 1160 ± 105 µM; in the data set “purified protein [7]” it was 96 ± 12 µM. The catalytic constant (kcat) in the data set “purified protein [4]” stood at 77.8 s⁻¹; in the data set “purified protein [5]”, 97 s⁻¹; in “purified protein [6]” it was 110 s⁻¹; in the data set “purified protein [7]”, 110 s⁻¹.
